Measurements: US20250027090

Tests used:
[1] = target: T1, thrombin (native human beta-thrombin) (Homo sapiens) (UniProt P00734+P00734); assay: EMSA; details: for Kd: selection buffer, 10% glycerol, room temperature; for binding signal: 1 uM thrombin
[2] = target: T1, thrombin (native human beta-thrombin) (Homo sapiens); assay: ITC; details: L-DNA (all nucleotides); physiological buffer pH 7.4, 25 C
[3] = target: thrombin (native bovine alpha-thrombin) (Bos taurus) (UniProt P00735+P00735); assay: ITC; details: L-DNA (all nucleotides)
[4] = target: T1, thrombin (native human beta-thrombin) (Homo sapiens); assay: inhibition; details: L-DNA (all nucleotides); R0 pool, no inhibition up to 8 uM

Question: “ACGGAACGCGTTTCAAGACTACCGTGTTTGTTCCGT [Cy5-L-9-1t aptamer]” was tested. Which Kd ([1]; L-DNA (all nucleotides)) did it give?
Answer: 0.021 µM

Question: Which Kd [2] does the source give for “ACGGAACGCGTTTCAAGACTACCGTGTTTGTTCCGT [L-9-1t aptamer]” here?
Answer: 0.039 µM

Question: What about the Kd ([3]; ~26-fold weaker than human thrombin) of the same sequence?
Answer: 1.03 µM

Question: With “CGGATCCAGTTACGGAACGCGTTTCAAGACTACCGTGTTTGTTCCGTTCATTCAGTAAGCTTCGG [L-9-1 aptamer]” as the sequence, how does the Kd [2] read?
Answer: 0.029 µM

Question: How did the IC50 [4] turn out when “CGGATCCAGTTACGGANNNNNNNNNNNNNNNNNNNNNNNNNNNNNNTTCATTCAGTAAGCTTCGG [R0 L-DNA library pool]” was run?
Answer: > 8 µM

Question: With “CGGATCCAGTTACGGANNNNNNNNNNNNNNNNNNNNNNNNNNNNNNTTCATTCAGTAAGCTTCGG [R6 D-DNA pool]” as the sequence, how does the binding signal [1] read?
Answer: 70 % bound

Question: With “CGGATCCAGTTACGGANNNNNNNNNNNNNNNNNNNNNNNNNNNNNNTTCATTCAGTAAGCTTCGG [R9 L-DNA pool]” as the sequence, how does the binding signal ([1]; L-DNA (all nucleotides), 200 nM pool) read?
Answer: 70 % bound

Question: Which Kd [2] does the source give for “CGGATCCAGTTACGGATGAACTTGTTGAAACCCAACGGGAGAATCGTTCATTCAGTAAGCTTCGG [L-9-2 aptamer]” here?
Answer: 0.168 µM

Question: For “CGGATCCAGTTACGGATGAACTTGTTGAAACCCAACGGGAGCCTCGTTCATTCAGTAAGCTTCGGTGG [L-13 aptamer]”, which Kd [2] is on record?
Answer: 0.022 µM

Question: For “GATGAACTTGTTGAAACCCAACGGGAGAATCGTTCATT [Cy5-L-9-2t aptamer]”, which Kd ([1]; L-DNA (all nucleotides)) is on record?
Answer: 0.355 µM

Question: With “GATGAACTTGTTGAAACCCAACGGGAGAATCGTTCATT [L-9-2t aptamer]” as the sequence, how does the Kd [2] read?
Answer: 0.251 µM

Question: What about the Kd ([3]; ~1.7-fold weaker than human thrombin) of the same sequence?
Answer: 0.426 µM

Question: Which Kd ([1]; L-DNA (all nucleotides)) does the source give for “GATGAACTTGTTGAAACCCAACGGGAGCCTCGTTCATT [Cy5-L-13t aptamer]” here?
Answer: 0.028 µM

Question: For “GATGAACTTGTTGAAACCCAACGGGAGCCTCGTTCATT [L-13t aptamer]”, which Kd [2] is on record?
Answer: 0.034 µM
